Results on three variants are retold here after IntAct's records for PubMed 25114243.

First the molecules themselves.
B1: Ras-related protein Rab-5C (Homo sapiens), P51148 (parent)
chain: MAGRGGAARPNGPAAGNKICQFKLVLLGESAVGKSSLVLRFVKGQFHEYQESTIGAAFLTQTVCLDDTTVKFEIWDTAGQERYHSLAPMYYRGAQAAIVVYDITNTDTFARAKNWVKELQRQASPNIVIALAGNKADLASKRAVEFQEAQAYADDNSLLFMETSAKTAMNVNEIFMAIAKKLPKNEPQNATGAPGRNRGVDLQENNPASRSQCCSN
partner: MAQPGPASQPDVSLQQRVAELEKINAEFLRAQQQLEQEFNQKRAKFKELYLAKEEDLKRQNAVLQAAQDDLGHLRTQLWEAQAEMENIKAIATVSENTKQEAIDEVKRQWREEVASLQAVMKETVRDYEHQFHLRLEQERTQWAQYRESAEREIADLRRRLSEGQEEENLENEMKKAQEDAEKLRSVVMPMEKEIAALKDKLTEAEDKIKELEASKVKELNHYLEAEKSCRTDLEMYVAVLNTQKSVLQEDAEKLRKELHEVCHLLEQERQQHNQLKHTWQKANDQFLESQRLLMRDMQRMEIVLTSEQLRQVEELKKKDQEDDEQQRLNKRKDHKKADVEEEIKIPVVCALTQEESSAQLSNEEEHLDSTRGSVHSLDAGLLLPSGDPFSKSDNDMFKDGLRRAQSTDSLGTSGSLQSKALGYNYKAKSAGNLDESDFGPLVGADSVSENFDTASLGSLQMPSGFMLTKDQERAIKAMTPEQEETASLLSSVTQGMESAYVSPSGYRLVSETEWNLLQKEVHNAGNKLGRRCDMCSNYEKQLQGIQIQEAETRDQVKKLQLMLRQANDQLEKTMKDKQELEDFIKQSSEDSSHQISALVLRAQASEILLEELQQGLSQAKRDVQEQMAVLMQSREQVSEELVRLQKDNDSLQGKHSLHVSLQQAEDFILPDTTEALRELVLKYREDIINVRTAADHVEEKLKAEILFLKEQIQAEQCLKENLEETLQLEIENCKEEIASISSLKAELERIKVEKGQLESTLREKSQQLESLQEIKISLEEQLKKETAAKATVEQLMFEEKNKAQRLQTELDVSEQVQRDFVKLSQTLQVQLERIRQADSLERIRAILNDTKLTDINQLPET
B2: Ras-related protein Rab-5C (Homo sapiens), P51148 (parent)
chain: B1 chain
B3: Ras-related protein Rab-5C (Homo sapiens), P51148 (parent)
chain: B1 chain
partner: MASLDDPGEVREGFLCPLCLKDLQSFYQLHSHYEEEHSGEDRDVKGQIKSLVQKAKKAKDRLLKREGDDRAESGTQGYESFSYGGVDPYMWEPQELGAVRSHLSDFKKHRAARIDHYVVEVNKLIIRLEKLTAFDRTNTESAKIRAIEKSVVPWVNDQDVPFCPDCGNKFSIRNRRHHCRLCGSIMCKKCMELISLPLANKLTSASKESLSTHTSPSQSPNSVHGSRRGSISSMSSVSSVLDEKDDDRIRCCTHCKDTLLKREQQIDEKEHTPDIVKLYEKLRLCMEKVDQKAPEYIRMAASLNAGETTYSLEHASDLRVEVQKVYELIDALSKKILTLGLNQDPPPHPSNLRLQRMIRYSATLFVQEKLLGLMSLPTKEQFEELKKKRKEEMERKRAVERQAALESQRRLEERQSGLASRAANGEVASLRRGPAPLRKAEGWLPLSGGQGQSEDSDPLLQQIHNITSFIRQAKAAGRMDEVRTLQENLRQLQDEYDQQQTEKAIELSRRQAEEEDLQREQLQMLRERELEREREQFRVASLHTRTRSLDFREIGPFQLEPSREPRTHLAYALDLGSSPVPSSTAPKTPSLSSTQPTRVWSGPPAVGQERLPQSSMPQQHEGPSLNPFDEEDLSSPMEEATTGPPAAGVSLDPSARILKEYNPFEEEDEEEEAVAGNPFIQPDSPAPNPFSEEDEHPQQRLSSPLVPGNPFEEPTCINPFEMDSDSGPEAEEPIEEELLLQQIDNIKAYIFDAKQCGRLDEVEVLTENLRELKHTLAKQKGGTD

Variants of B1 are the subject of one assay. The note with it: with rabe1_human RABEP1, Q15276.
Regarding R92A, the “effect of a mutation on the interaction” value was “with no effect”.

In the next assay the parent is B2. The note with it: with eea1_human EEA1, Q15075.
Sequence of eea1_human EEA1, Q15075 (Q15075 whole entry): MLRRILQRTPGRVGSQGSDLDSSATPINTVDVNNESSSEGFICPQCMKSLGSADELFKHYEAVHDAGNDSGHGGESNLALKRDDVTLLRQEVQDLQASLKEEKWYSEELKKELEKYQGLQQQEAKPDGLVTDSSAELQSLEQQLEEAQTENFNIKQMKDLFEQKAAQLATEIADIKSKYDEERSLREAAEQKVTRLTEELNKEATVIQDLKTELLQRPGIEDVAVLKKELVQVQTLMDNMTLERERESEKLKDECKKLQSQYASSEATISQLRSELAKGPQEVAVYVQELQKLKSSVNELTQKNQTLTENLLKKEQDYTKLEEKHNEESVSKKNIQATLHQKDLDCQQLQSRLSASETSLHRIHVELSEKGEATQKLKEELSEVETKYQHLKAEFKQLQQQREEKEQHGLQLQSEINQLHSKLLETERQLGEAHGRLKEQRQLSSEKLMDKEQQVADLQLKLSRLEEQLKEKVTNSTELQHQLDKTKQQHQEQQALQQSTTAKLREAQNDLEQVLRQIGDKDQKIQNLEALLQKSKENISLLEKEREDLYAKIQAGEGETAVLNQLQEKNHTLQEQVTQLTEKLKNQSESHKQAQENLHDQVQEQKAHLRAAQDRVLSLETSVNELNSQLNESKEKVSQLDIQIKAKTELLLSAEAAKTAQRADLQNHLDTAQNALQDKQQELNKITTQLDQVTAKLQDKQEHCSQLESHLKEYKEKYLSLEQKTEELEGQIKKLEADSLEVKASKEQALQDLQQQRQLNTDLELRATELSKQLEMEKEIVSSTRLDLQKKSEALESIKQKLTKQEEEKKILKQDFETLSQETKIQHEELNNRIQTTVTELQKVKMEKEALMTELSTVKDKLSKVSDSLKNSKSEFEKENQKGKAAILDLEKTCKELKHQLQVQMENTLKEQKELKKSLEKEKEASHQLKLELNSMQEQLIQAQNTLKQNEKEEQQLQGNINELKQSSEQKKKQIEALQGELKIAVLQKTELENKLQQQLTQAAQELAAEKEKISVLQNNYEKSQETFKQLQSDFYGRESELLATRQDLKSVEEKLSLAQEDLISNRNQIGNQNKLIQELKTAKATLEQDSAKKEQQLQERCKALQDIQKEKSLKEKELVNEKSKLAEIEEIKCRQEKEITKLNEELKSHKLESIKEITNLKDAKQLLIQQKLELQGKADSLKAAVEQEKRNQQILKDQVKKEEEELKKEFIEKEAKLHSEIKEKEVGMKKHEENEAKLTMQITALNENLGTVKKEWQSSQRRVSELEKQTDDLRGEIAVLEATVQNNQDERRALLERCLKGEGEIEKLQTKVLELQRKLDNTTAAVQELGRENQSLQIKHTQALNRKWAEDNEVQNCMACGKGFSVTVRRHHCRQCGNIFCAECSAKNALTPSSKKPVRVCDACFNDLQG
Consider R92A, for which the “effect of a mutation on the interaction” value is given as “decreasing interaction”.

Variants of B3 are the subject of the next assay. The note with it: with rbns5_human RBSN.
Take R92A: the “effect of a mutation on the interaction” value was “decreasing interaction”.
